The sequences below were run against SHP2-C SH2 (assay: SH2 binding enrichment of the phosphorylated peptide, bacterial display (enrichment ratio); higher = better substrate or ligand; peptides without Tyr show the background).
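Wherever SH2 binding enrichment of the phosphorylated peptide, bacterial display is given: peptide library displayed on the E. coli surface as eCPX fusions, selected cells deep-sequenced, score is each peptide's frequency after selection divided by its frequency in the input.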

Sequence	SH2 binding enrichment
FFIMMYTGSNV [DNAJC13_Y1131]	0.732
CTTIHNNYMCN [TP53_Y234_Y234N]	1.27
VEFAKYGSLRG [RET_Y809_YF]	0.82
ALAHKYHGGGG [HBB_Y146]	0.63
SVVVPYEAPEV [TP53_Y220_P222A]	0.808
NNHGNYIVLLG [ETFDH_Y172_R175L]	1.14
GGDAVYTNGAI [RFX2_Y82]	0.594
PVVKLYATDGR [RP1_Y199]	0.558
GHGRFYMKEAI [PGM1_Y66_D62H]	1.21
HEKKAYAFCGT [RPS6KA3_Y226_S227A]	0.888
RGDCTYAPLLG [AR_Y269_M268T]	0.594
QRTMKYTTATE [MCCC1_Y41_G46E]	0.635
HRGCLYLAIEY [TEK_Y899_Y897C]	0.564
SFGENYDNSKS [MAN1B1_Y60]	0.571
PHQTIYSALMI [FGF23_Y70]	0.598
ALAHKYLGGGG [HBB_Y146_H147L]	0.608
NNIDYYKKTTN [FGFR2_Y657]	0.603

Sequence	SH2 binding enrichment
LASSEYPVQRR [GALK1_Y236_R239Q]	0.794
TFEPNYGTVKR [RAPGEF6_Y1447_Q1452R_YF]	0.687
VFDMLYQVANL [USP24_Y1087_L1089V]	1
HKDNNYISMWF [PAPOLG_Y432_V433I]	0.51
ARMTNCGLPRY [TSPAN12_Y138_Y138C]	1
FQSKHYACIRQ [TIMP3_Y182_YF]	6.08
KSLSQYLEMDK [CAGE1_Y438_V435L]	0.837
PHRSIYFSSPK [MPG_Y75_Y71H]	0.609
DHKRQYELLKL [KIF4B_Y684_R680H]	0.76
AAVDEYLEYRR [FAM221A_Y17]	1.17
IEEGTYGVVYR [CDK11B_Y449]	0.668
SNKLYYQLEQE [PDPR_Y110]	0.725
SAASSYSFSDL [EMD_Y59]	0.598
CDTKLYTSVPN [DNTTIP2_Y427_A430V]	0.48
MEVGQYIFVKC [CYBB_Y324]	0.651
DYNPNYCFAGK [ALK_Y1096]	0.788

Each sequence was assayed against c-Src SH2 in the same assay as above.

Sequence	SH2 binding enrichment
FFIMMYTGSNV [DNAJC13_Y1131]	0.508
CTTIHNNYMCN [TP53_Y234_Y234N]	0.914
VEFAKYGSLRG [RET_Y809_YF]	0.584
ALAHKYHGGGG [HBB_Y146]	0.43
SVVVPYEAPEV [TP53_Y220_P222A]	1.26
NNHGNYIVLLG [ETFDH_Y172_R175L]	0.587
GGDAVYTNGAI [RFX2_Y82]	0.491
PVVKLYATDGR [RP1_Y199]	0.569
GHGRFYMKEAI [PGM1_Y66_D62H]	1.1
HEKKAYAFCGT [RPS6KA3_Y226_S227A]	0.721
RGDCTYAPLLG [AR_Y269_M268T]	0.896
QRTMKYTTATE [MCCC1_Y41_G46E]	0.521
HRGCLYLAIEY [TEK_Y899_Y897C]	0.423
SFGENYDNSKS [MAN1B1_Y60]	0.75
PHQTIYSALMI [FGF23_Y70]	0.495
ALAHKYLGGGG [HBB_Y146_H147L]	0.503
NNIDYYKKTTN [FGFR2_Y657]	0.459

Sequence	SH2 binding enrichment
LASSEYPVQRR [GALK1_Y236_R239Q]	0.256
TFEPNYGTVKR [RAPGEF6_Y1447_Q1452R_YF]	0.514
VFDMLYQVANL [USP24_Y1087_L1089V]	0.769
HKDNNYISMWF [PAPOLG_Y432_V433I]	0.346
ARMTNCGLPRY [TSPAN12_Y138_Y138C]	0.845
FQSKHYACIRQ [TIMP3_Y182_YF]	1.79
KSLSQYLEMDK [CAGE1_Y438_V435L]	1.4
PHRSIYFSSPK [MPG_Y75_Y71H]	0.46
DHKRQYELLKL [KIF4B_Y684_R680H]	2.31
AAVDEYLEYRR [FAM221A_Y17]	0.539
IEEGTYGVVYR [CDK11B_Y449]	0.451
SNKLYYQLEQE [PDPR_Y110]	2.13
SAASSYSFSDL [EMD_Y59]	0.544
CDTKLYTSVPN [DNTTIP2_Y427_A430V]	1.22
MEVGQYIFVKC [CYBB_Y324]	0.539
DYNPNYCFAGK [ALK_Y1096]	0.532

The sequences below were run against Grb2 SH2 (UniProt P62993) in the same assay as above.
Chain of Grb2 SH2 (P62993 whole entry, looked up): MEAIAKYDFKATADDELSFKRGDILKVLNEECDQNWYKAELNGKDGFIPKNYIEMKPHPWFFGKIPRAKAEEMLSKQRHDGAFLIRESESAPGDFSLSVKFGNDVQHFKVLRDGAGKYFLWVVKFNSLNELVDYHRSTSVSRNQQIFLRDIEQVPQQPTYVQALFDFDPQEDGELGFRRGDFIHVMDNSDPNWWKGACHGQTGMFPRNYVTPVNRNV

Sequence	SH2 binding enrichment
FFIMMYTGSNV [DNAJC13_Y1131]	0.9
CTTIHNNYMCN [TP53_Y234_Y234N]	0.987
VEFAKYGSLRG [RET_Y809_YF]	0.817
ALAHKYHGGGG [HBB_Y146]	0.756
SVVVPYEAPEV [TP53_Y220_P222A]	0.79
NNHGNYIVLLG [ETFDH_Y172_R175L]	0.983
GGDAVYTNGAI [RFX2_Y82]	0.995
PVVKLYATDGR [RP1_Y199]	0.876
GHGRFYMKEAI [PGM1_Y66_D62H]	1.32
HEKKAYAFCGT [RPS6KA3_Y226_S227A]	1.04
RGDCTYAPLLG [AR_Y269_M268T]	0.88
QRTMKYTTATE [MCCC1_Y41_G46E]	0.768
HRGCLYLAIEY [TEK_Y899_Y897C]	1.04
SFGENYDNSKS [MAN1B1_Y60]	0.765
PHQTIYSALMI [FGF23_Y70]	0.68
ALAHKYLGGGG [HBB_Y146_H147L]	1.01
NNIDYYKKTTN [FGFR2_Y657]	1.02

Sequence	SH2 binding enrichment
LASSEYPVQRR [GALK1_Y236_R239Q]	1.16
TFEPNYGTVKR [RAPGEF6_Y1447_Q1452R_YF]	0.982
VFDMLYQVANL [USP24_Y1087_L1089V]	1.16
HKDNNYISMWF [PAPOLG_Y432_V433I]	0.726
ARMTNCGLPRY [TSPAN12_Y138_Y138C]	1.25
FQSKHYACIRQ [TIMP3_Y182_YF]	1.01
KSLSQYLEMDK [CAGE1_Y438_V435L]	0.709
PHRSIYFSSPK [MPG_Y75_Y71H]	1.01
DHKRQYELLKL [KIF4B_Y684_R680H]	0.79
AAVDEYLEYRR [FAM221A_Y17]	0.846
IEEGTYGVVYR [CDK11B_Y449]	0.834
SNKLYYQLEQE [PDPR_Y110]	1.17
SAASSYSFSDL [EMD_Y59]	0.846
CDTKLYTSVPN [DNTTIP2_Y427_A430V]	0.728
MEVGQYIFVKC [CYBB_Y324]	0.781
DYNPNYCFAGK [ALK_Y1096]	0.799

These sequences were tested on c-Abl (mouse) (assay: phosphorylation enrichment, bacterial display (enrichment ratio); higher = better substrate or ligand; peptides without Tyr show the background).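 Further: 11-residue human phosphosite peptides and single-mutation variants displayed on the E. coli surface, counted by deep sequencing, each peptide's frequency after selection divided by its frequency in the unselected input library; frequency after pTyr selection over input frequency; kinase dosed for 20-30% of maximal phosphorylation in three min.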

Sequence	phosphorylation enrichment
FFIMMYTGSNV [DNAJC13_Y1131]	0.779
CTTIHNNYMCN [TP53_Y234_Y234N]	0.63
VEFAKYGSLRG [RET_Y809_YF]	0.622
ALAHKYHGGGG [HBB_Y146]	0.534
SVVVPYEAPEV [TP53_Y220_P222A]	0.79
NNHGNYIVLLG [ETFDH_Y172_R175L]	0.644
GGDAVYTNGAI [RFX2_Y82]	0.443
PVVKLYATDGR [RP1_Y199]	0.781
GHGRFYMKEAI [PGM1_Y66_D62H]	0.536
HEKKAYAFCGT [RPS6KA3_Y226_S227A]	0.649
RGDCTYAPLLG [AR_Y269_M268T]	2.55
QRTMKYTTATE [MCCC1_Y41_G46E]	0.496
HRGCLYLAIEY [TEK_Y899_Y897C]	1.49
SFGENYDNSKS [MAN1B1_Y60]	0.833
PHQTIYSALMI [FGF23_Y70]	20.6
ALAHKYLGGGG [HBB_Y146_H147L]	0.289
NNIDYYKKTTN [FGFR2_Y657]	0.517

Sequence	phosphorylation enrichment
LASSEYPVQRR [GALK1_Y236_R239Q]	1.03
TFEPNYGTVKR [RAPGEF6_Y1447_Q1452R_YF]	0.691
VFDMLYQVANL [USP24_Y1087_L1089V]	2.06
HKDNNYISMWF [PAPOLG_Y432_V433I]	0.975
ARMTNCGLPRY [TSPAN12_Y138_Y138C]	0.575
FQSKHYACIRQ [TIMP3_Y182_YF]	0.659
KSLSQYLEMDK [CAGE1_Y438_V435L]	0.56
PHRSIYFSSPK [MPG_Y75_Y71H]	0.862
DHKRQYELLKL [KIF4B_Y684_R680H]	0.511
AAVDEYLEYRR [FAM221A_Y17]	0.698
IEEGTYGVVYR [CDK11B_Y449]	1.3
SNKLYYQLEQE [PDPR_Y110]	1.11
SAASSYSFSDL [EMD_Y59]	0.753
CDTKLYTSVPN [DNTTIP2_Y427_A430V]	0.755
MEVGQYIFVKC [CYBB_Y324]	1.01
DYNPNYCFAGK [ALK_Y1096]	0.812
